Three molecules from patent publication US20260250318A1, “COMPOSITIONS AND METHODS FOR CROSSING THE BLOOD BRAIN BARRIER” (VOYAGER THERAPEUTICS, INC., priority 2022, published 2026) can be followed below.

Experiment [1] addresses T1, ALPL (Homo sapiens, UniProt P05186).
T1 sequence (P05186 18-501): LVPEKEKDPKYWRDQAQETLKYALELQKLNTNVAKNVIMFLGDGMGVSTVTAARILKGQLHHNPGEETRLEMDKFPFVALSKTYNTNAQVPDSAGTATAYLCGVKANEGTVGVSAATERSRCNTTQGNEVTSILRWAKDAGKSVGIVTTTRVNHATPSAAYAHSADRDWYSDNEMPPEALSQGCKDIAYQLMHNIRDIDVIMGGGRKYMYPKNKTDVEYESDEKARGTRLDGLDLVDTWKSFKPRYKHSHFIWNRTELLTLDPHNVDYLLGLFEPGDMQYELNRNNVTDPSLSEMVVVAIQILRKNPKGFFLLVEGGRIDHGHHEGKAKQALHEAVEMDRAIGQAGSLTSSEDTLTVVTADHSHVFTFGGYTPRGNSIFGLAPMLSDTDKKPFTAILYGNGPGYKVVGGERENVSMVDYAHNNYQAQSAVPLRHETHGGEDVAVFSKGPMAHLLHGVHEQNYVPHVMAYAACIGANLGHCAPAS
The experiment can be described thus: SPR (Biacore 8K) binding of peptide ligands to ALPL. Conditions: 50 μM peptides or 250 nM capsids flowed over. How it is done:
Binding and interaction between the peptides and the ALPL receptor were measured by Surface Plasmon Resonance (SPR) on a Biacore 8K instrument. The biotinylated peptides in Table 37 were captured on the streptavidin biosensor chip and 1000 nM of ALPL and buffer were passed over the peptides to monitor binding. […] His-tagged ALPL was then captured on the chip pre-immobilized with anti-His antibody, and 50 μM of the peptides in Table 37 or 250 nM of the AAV9 control capsid, the TTM-001 capsid variant (SEQ ID NO: 981), or the TTM-002 capsid variant (SEQ ID NO: 982) were flowed over the ALPL to check for binding. […] The longer peptides derived from TTM-002,
were also flowed over the his-tagged ALPL captured on the CM5 sensor chip pre-immobilized with anti-His antibody.
Binding and interaction between the phosho-peptides and the ALPL receptor were also measured by SPR. The biotinylated and phosphorylated peptides in Table 38 were captured on the streptavidin biosensor chip along with their non-phosphorylated counterparts, […] (SEQ ID NO: 4500) and […] (SEQ ID NO: 4503). ALPL and buffer were passed over the peptides to monitor binding. The concentration of ALPL used ranged from 0 to 500 nM (0 nM, 125 nM, 250 nM, and 500 nM).
In a second experiment, his-tagged ALPL was first captured on a CM5 sensor chip pre-immobilized with anti-His antibody. The phosphorylated peptides in Table 38 and their non-phosphorylated counterparts, […] (SEQ ID NO: 4500) and […] (SEQ ID NO: 4503) and buffer were flowed over the ALPL protein to monitor binding.

The target of experiment [2] is T2, ALPL (Homo sapiens, UniProt P05186).
T2 construct: expressed in transfected cells; host or cells: HEK 293T
T2 sequence (P05186 whole entry, looked up): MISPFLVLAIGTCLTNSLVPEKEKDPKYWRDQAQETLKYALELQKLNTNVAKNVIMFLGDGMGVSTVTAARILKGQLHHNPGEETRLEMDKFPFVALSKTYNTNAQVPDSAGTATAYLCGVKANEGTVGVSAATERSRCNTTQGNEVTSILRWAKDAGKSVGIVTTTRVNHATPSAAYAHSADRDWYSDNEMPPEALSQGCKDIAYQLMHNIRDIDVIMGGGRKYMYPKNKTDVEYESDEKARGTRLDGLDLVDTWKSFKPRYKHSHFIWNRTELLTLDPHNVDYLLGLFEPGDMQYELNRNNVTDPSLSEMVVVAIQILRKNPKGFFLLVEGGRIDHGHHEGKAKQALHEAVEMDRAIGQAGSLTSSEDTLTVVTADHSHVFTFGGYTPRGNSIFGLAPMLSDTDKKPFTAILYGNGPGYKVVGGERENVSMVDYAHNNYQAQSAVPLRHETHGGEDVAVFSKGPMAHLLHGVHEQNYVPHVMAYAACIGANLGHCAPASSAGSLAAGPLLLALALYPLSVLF
Type of experiment: cell-based. The protocol:
(§1) Briefly, a transduction assay was performed in that HEK 293T cells were transfected via calcium phosphate transfection with a plasmid expressing ALPL, an AAVR positive control, or a pCMV6 negative control (250 ng or 500 ng of plasmid). AAVR is a universal AAV entry factor involved in AAV transduction. […] At 24-hours post-transduction, GFP expression and luciferase activity were measured to quantify and observe AAV cellular transduction. […] The TTM-002, TTM-006, TTM-018, and TTM-019 capsid variants all comprised the SPH motif immediately subsequent to position 455, numbered relative to SEQ ID NO: 138 and a positive residue in one of the next three residues subsequent to the SPH motif.
(§2) To determine if the TTM-001 and TTM-002 capsid variants could bind to both the human ALPL protein (NM_000478.6, which is incorporated by reference herein) and the mouse ALPL ortholog (NM_001287172.1, which is incorporated by reference herein), HEK 293T cells were transfected via calcium phosphate transfection with a plasmid expressing human ALPL, the murine ortholog of ALPL, or a pCMV6 negative control. At 24 hours post-transfection, the HEK 293T cells expressing the ALPL receptor were transduced with an AAV particle comprising the TTM-001 capsid variant, the TTM-002 capsid variant, or an AAV9 control capsid protein, expressing a Luc2-GFP payload. At 24-hours post-transduction, luciferase activity (RLU) was measured to quantify AAV cellular transduction.

The target in a further experiment is T3, AAVR (Homo sapiens, UniProt Q8IZA0).
T3 construct: expressed in transfected cells; host or cells: HEK 293T
T3 sequence (Q8IZA0 whole entry, looked up): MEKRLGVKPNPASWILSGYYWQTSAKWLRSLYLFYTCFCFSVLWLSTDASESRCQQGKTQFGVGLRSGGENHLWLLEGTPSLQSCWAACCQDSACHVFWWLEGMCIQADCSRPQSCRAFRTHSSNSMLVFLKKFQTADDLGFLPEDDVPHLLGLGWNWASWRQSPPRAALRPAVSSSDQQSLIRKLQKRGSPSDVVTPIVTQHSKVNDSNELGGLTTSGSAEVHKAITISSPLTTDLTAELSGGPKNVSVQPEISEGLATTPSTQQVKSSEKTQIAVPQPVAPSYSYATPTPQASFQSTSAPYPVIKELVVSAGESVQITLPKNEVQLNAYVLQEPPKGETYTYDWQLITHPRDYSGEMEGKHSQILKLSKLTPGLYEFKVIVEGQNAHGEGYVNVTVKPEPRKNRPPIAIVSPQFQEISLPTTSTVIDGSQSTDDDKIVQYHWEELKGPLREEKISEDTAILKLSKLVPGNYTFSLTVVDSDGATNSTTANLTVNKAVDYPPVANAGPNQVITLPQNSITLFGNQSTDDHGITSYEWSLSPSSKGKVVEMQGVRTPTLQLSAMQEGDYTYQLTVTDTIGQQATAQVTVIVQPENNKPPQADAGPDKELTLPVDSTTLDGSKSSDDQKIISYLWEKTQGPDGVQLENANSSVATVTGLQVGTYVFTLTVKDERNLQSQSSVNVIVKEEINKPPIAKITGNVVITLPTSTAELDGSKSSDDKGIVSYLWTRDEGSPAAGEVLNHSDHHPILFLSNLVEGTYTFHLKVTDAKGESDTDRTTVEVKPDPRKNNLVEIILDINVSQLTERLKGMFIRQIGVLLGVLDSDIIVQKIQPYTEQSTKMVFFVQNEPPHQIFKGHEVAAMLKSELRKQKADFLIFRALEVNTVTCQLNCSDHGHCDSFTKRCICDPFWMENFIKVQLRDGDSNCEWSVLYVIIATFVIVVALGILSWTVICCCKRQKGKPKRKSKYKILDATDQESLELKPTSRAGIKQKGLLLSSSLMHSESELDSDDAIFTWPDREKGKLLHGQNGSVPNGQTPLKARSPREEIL
Type of experiment: cell-based. Conditions: Table 28; AAVR transfected cells. How it is done:
as §1

For experiment [3], the system named is HEK 293T cells transfected with pCMV6 negative control. Type of experiment: cell-based. To be noted: Table 28; pCMV6 transfected cells (negative control, reference). The protocol:
as §1
Three isoforms of ALPL exist, isoform 1 (Alkaline phosphatase, placental-like 2 (ALPPL2), NM_031313, which is incorporated by reference herein), isoform 2 (alkaline phosphatase, placental (ALPP), NM_001632, which is incorporated by reference herein), and isoform 3 (alkaline phosphatase, intestinal (ALPLI), NM_001631, which is incorporated by reference herein), that can also be expressed on cell surfaces via a GPI-anchor. […] The transduction assay described above was repeated with the three isoforms. HEK 293T cells were transfected via calcium phosphate transfection with a plasmid expressing ALPL, isoform 1 of ALPL, isoform 2 of ALPL, isoform 3 of ALPL, an AAVR positive control, or a pCMV6 negative control. At 24 hours post-transfection, the HEK 293T cells expressing the ALPL receptor were transduced with an AAV particle comprising the TTM-001 capsid variant or the TTM-002 capsid variant, expressing a Luc2-GFP payload. At 24-hours post-transduction, luciferase activity (RLU) was measured to quantify AAV cellular transduction.
To determine if deletion of the endoplasmic reticulum (ER) localization signal of ALPL affected transduction of the TTM-001 and TTM-002 capsid variants, HEK 293T cells were transfected via calcium phosphate transfection with a plasmid expressing ALPL, ALP with a deletion of the ER localization signal (ALPL transcript variant 2 that lacks the ER signal (NM_001127501, which is incorporated by reference herein)), or a pCMV6 negative control. At 24 hours post-transfection, the HEK 293T cells expressing the ALPL receptor were transduced with an AAV particle comprising the TTM-001 capsid variant, the TTM-002 capsid variant, or an AAV9 capsid control, expressing a GFP payload. At 24-hours post-transduction, luciferase activity (RLU) was measured to quantify AAV cellular transduction. Data was normalized to fold change in luciferase activity (RLU) compared to the pCMV6 control.
as §2
AAV entry factor involved in AAV transduction), or a pCMV6 negative control.

Consider “GSGSRLMNPLIDQYLYYLSKTINGHDSPHKSGQNQQTLKFSVAGPSNMAV [longer peptide derived from TTM-002]”, for which the “binding to ALPL by SPR, His-tagged ALPL captured on chip” value with ALPL [1] was “no binding to ALPL was observed”.

As for “GSGSLYYLSKTINGHDSPHKSGQNQQTLKF [longer peptide derived from TTM-002]”, the “binding to ALPL by SPR, His-tagged ALPL captured on chip” value with ALPL [1] is given as “no binding to ALPL was observed”.

B1: TTM-019: AAV9 capsid variant, full length capsid sequence of Table 4 (protein)
chain: MAADGYLPDWLEDNLSEGIREWWALKPGAPQPKANQQHQDNARGLVLPGYKYLGPGNGLDKGEPVNAADAAALEHDKAYDQQLKAGDNPYLKYNHADAEFQERLKEDTSFGGNLGRAVFQAKKRLLEPLGLVEEAAKTAPGKKRPVEQSPQEPDSSAGIGKSGAQPAKKRLNFGQTGDTESVPDPQPIGEPPAAPSGVGSLTMASGGGAPVADNNEGADGVGSSSGNWHCDSQWLGDRVITTSTRTWALPTYNNHLYKQISNSTSGGSSNDNAYFGYSTPWGYFDFNRFHCHFSPRDWQRLINNNWGFRPKRLNFKLFNIQVKEVTDNNGVKTIANNLTSTVQVFTDSDYQLPYVLGSAHEGCLPPFPADVFMIPQYGYLTLNDGSQAVGRSSFYCLEYFPSQMLRTGNNFQFSYEFENVPFHSSYAHSQSLDRLMNPLIDQYLYYLSKTVNGHDSPHSKAQNQQTLKFSVAGPSNMAVQGRNYIPGPSYRQQRVSTTVTQNNNSEFAWPGASSWALNGRNSLMNPGPAMASHKEGEDRFFPLSGSLIFGKQGTGRDNVDADKVMITNEEEIKTTNPVATESYGQVATNHQSAQAQAQTGWVQNQGILPGMVWQDRDVYLQGPIWAKIPHTDGNFHPSPLMGGFGMKHPPPQILIKNTPVPADPPTAFNKDKLNSFITQYSTGQVSVEIEWELQKENSKRWNPEIQYTSNYYKSNNVEFAVNTEGVYSEPRPIGTRYLTRNL
With B1, the “Luciferase Activity (fold change relative to pCMV6 transfected cells)” value with ALPL [2] (Table 28, ALPL transfected cells) worked out at 88 fold; with AAVR, 28 fold; in experiment [3] it was 1 fold. Further, the “fold increase in transduction by luciferase assay in cells expressing ALPL” value with ALPL [2] (relative to pCMV6 transfected cells, 24 hours post-transduction) is “an increase in transduction”.
